According to the supplement of paper PMC9112550, “Optimization of the antimicrobial peptide Bac7 by deep mutational scanning” (BMC Biology, 2022):

Test system: Escherichia coli TOP10
Assay: shrunken log2 fold change of peptide-encoding DNA abundance (4.5 h post-induction vs induction); higher = less antimicrobial activity (less host growth inhibition)
Conditions: time post-induction: 4.5 h; library: site-saturation at positions 5, 18, 19, 20
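Note: peptides expressed intracellularly from a pBAD plasmid library in pooled LB shake-flask culture, induced with 0.3% L-arabinose, DNA abundance read by NGS, three biological replicates, DESeq2 with apeglm shrinkage.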

| Sequence | shrunken log2 fold change |
| --- | --- |
| RRIRQRPPRLPRPRPRPCPAPRP | -0.00924 |
| RRIRWRPPRLPRPRPRPSVTPRP | 0.145 |
| RRIRQRPPRLPRPRPRPNDCPRP | 0.0531 |
| RRIRQRPPRLPRPRPRPNVGPRP | -0.0447 |
| RRIRARPPRLPRPRPRPQAGPRP | 0.195 |
| RRIRPRPPRLPRPRPRPIINPRP | -0.909 |
| RRIRERPPRLPRPRPRPWLDPRP | 0.121 |
| RRIRSRPPRLPRPRPRPTGKPRP | 0.274 |
| RRIRYRPPRLPRPRPRPRLKPRP | 3.7 |
| RRIRSRPPRLPRPRPRPKMGPRP | -0.108 |
| RRIRSRPPRLPRPRPRPISDPRP | 0.103 |
| RRIRNRPPRLPRPRPRPPDVPRP | -0.14 |
| RRIRERPPRLPRPRPRPKVVPRP | -0.0857 |
| RRIRVRPPRLPRPRPRPMGMPRP | 0.0727 |
| RRIRDRPPRLPRPRPRPMRRPRP | 0.363 |
| RRIRVRPPRLPRPRPRPMIKPRP | -0.156 |
| RRIRPRPPRLPRPRPRPHQFPRP | -0.0896 |
| RRIRNRPPRLPRPRPRPAACPRP | -0.0409 |
| RRIRLRPPRLPRPRPRPTINPRP | -0.524 |
| RRIRWRPPRLPRPRPRPHFAPRP | 0.046 |
| RRIRNRPPRLPRPRPRPKGTPRP | 0.118 |
| RRIRARPPRLPRPRPRPCHGPRP | -0.214 |
| RRIRWRPPRLPRPRPRPWREPRP | -0.0969 |
| RRIRRRPPRLPRPRPRPTATPRP | 1.56 |
| RRIRARPPRLPRPRPRPHRNPRP | 0.192 |

| Sequence | shrunken log2 fold change |
| --- | --- |
| RRIRFRPPRLPRPRPRPNHPPRP | -0.84 |
| RRIRWRPPRLPRPRPRPIKWPRP | -0.18 |
| RRIRNRPPRLPRPRPRPVGRPRP | 0.118 |
| RRIRNRPPRLPRPRPRPKWGPRP | 0.147 |
| RRIRFRPPRLPRPRPRPHLEPRP | -0.425 |
| RRIRARPPRLPRPRPRPNPYPRP | -0.115 |
| RRIRCRPPRLPRPRPRPCYNPRP | -0.837 |
| RRIRMRPPRLPRPRPRPIAIPRP | 0.226 |
| RRIRWRPPRLPRPRPRPACQPRP | 0.015 |
| RRIRVRPPRLPRPRPRPDRYPRP | -0.00296 |
| RRIRKRPPRLPRPRPRPHSTPRP | -0.0637 |
| RRIRQRPPRLPRPRPRPPMEPRP | -0.22 |
| RRIRTRPPRLPRPRPRPKAVPRP | 0.26 |
| RRIRSRPPRLPRPRPRPYAGPRP | 0.0441 |
| RRIRIRPPRLPRPRPRPISKPRP | -0.161 |
| RRIRKRPPRLPRPRPRPDWLPRP | 0.308 |
| RRIRSRPPRLPRPRPRPRYPPRP | -0.036 |
| RRIRERPPRLPRPRPRPAFRPRP | -0.0607 |
| RRIRNRPPRLPRPRPRPQMPPRP | -0.334 |
| RRIRRRPPRLPRPRPRPKRWPRP | 0.409 |
| RRIRRRPPRLPRPRPRPTDRPRP | 0.194 |
| RRIRRRPPRLPRPRPRPPFNPRP | 0.333 |
| RRIRWRPPRLPRPRPRPCEYPRP | -0.379 |
| RRIRWRPPRLPRPRPRPYLDPRP | -0.33 |
| RRIRDRPPRLPRPRPRPIRWPRP | 0.13 |

| Sequence | shrunken log2 fold change |
| --- | --- |
| RRIRCRPPRLPRPRPRPGFDPRP | 0.104 |
| RRIRLRPPRLPRPRPRPQGYPRP | -0.141 |
| RRIRQRPPRLPRPRPRPANHPRP | -0.728 |
| RRIRERPPRLPRPRPRPFYTPRP | -0.629 |
| RRIRQRPPRLPRPRPRPQWGPRP | -0.161 |
| RRIRIRPPRLPRPRPRPIVTPRP | -0.429 |
| RRIRARPPRLPRPRPRPAYDPRP | 0.00165 |
| RRIRYRPPRLPRPRPRPHLAPRP | 0.13 |
| RRIRFRPPRLPRPRPRPYYWPRP | -0.485 |
| RRIRCRPPRLPRPRPRPAMAPRP | 0.199 |
| RRIRHRPPRLPRPRPRPDKDPRP | -0.44 |
| RRIRPRPPRLPRPRPRPNACPRP | 0.195 |
| RRIRIRPPRLPRPRPRPAIRPRP | -0.161 |
| RRIRMRPPRLPRPRPRPICEPRP | 0.241 |
| RRIRERPPRLPRPRPRPSFLPRP | -0.789 |
| RRIRQRPPRLPRPRPRPLVIPRP | -0.682 |
| RRIRKRPPRLPRPRPRPNIGPRP | -0.05 |
| RRIRNRPPRLPRPRPRPNGWPRP | -0.0113 |
| RRIRLRPPRLPRPRPRPAHHPRP | 0.0653 |
| RRIRTRPPRLPRPRPRPPPTPRP | 0.828 |
| RRIRIRPPRLPRPRPRPEYFPRP | -0.0312 |
| RRIRIRPPRLPRPRPRPPFNPRP | -0.473 |
| RRIRDRPPRLPRPRPRPEGRPRP | 0.517 |
| RRIRHRPPRLPRPRPRPQIMPRP | -0.682 |
| RRIRHRPPRLPRPRPRPSEAPRP | -0.344 |

| Sequence | shrunken log2 fold change |
| --- | --- |
| RRIRKRPPRLPRPRPRPKEDPRP | 0.795 |
| RRIRQRPPRLPRPRPRPNDNPRP | -0.577 |
| RRIRERPPRLPRPRPRPVRSPRP | 0.0119 |
| RRIRYRPPRLPRPRPRPQMAPRP | -1.66 |
| RRIRKRPPRLPRPRPRPGNKPRP | -0.0985 |
| RRIRNRPPRLPRPRPRPLNKPRP | -0.256 |
| RRIRPRPPRLPRPRPRPGPLPRP | 0.193 |
| RRIRCRPPRLPRPRPRPMMYPRP | -0.12 |
| RRIRSRPPRLPRPRPRPDIAPRP | -0.0218 |
| RRIRTRPPRLPRPRPRPVKFPRP | -0.0819 |
| RRIRLRPPRLPRPRPRPMNDPRP | -0.219 |
| RRIRGRPPRLPRPRPRPCWGPRP | 0.157 |
| RRIRQRPPRLPRPRPRPVMVPRP | 0.11 |
| RRIRERPPRLPRPRPRPAFSPRP | 0.122 |
| RRIRRRPPRLPRPRPRPRRKPRP | 0.43 |
| RRIRWRPPRLPRPRPRPMTNPRP | -0.0531 |
| RRIRTRPPRLPRPRPRPTEVPRP | -0.199 |
| RRIRTRPPRLPRPRPRPHREPRP | -0.075 |
| RRIRSRPPRLPRPRPRPRNKPRP | -0.0701 |
| RRIRKRPPRLPRPRPRPSTDPRP | -0.135 |
| RRIRSRPPRLPRPRPRPVLNPRP | -0.169 |
| RRIRCRPPRLPRPRPRPFYKPRP | 0.979 |
| RRIRSRPPRLPRPRPRPHLDPRP | -0.156 |
| RRIRDRPPRLPRPRPRPIDLPRP | -0.0817 |
| RRIRRRPPRLPRPRPRPHSEPRP | 0.0888 |

| Sequence | shrunken log2 fold change |
| --- | --- |
| RRIRWRPPRLPRPRPRPLRHPRP | 0.751 |
| RRIRGRPPRLPRPRPRPSMRPRP | 1.15 |
| RRIRKRPPRLPRPRPRPVQCPRP | 0.0223 |
| RRIRNRPPRLPRPRPRPSKPPRP | -0.399 |
| RRIRNRPPRLPRPRPRPHRNPRP | -0.176 |
| RRIRMRPPRLPRPRPRPYNSPRP | -0.22 |
| RRIRSRPPRLPRPRPRPPGFPRP | 0.467 |
| RRIRKRPPRLPRPRPRPYHGPRP | -0.000893 |
| RRIRKRPPRLPRPRPRPNGYPRP | 0.0664 |
| RRIRIRPPRLPRPRPRPTKNPRP | -0.355 |
| RRIRHRPPRLPRPRPRPVVSPRP | -0.137 |
| RRIRERPPRLPRPRPRPIKFPRP | -0.0529 |
| RRIRRRPPRLPRPRPRPVNAPRP | 0.37 |
| RRIRYRPPRLPRPRPRPMCAPRP | -0.208 |
| RRIRTRPPRLPRPRPRPEIKPRP | -0.0117 |
| RRIRMRPPRLPRPRPRPSIFPRP | 0.00177 |
| RRIRCRPPRLPRPRPRPIDYPRP | -0.651 |
| RRIRHRPPRLPRPRPRPDNWPRP | -0.335 |
| RRIRDRPPRLPRPRPRPKSSPRP | 0.0319 |
| RRIRQRPPRLPRPRPRPSTIPRP | -0.0567 |
| RRIRTRPPRLPRPRPRPYDVPRP | -0.153 |
| RRIRGRPPRLPRPRPRPISKPRP | 0.0989 |
| RRIRERPPRLPRPRPRPCIKPRP | -0.363 |
| RRIRNRPPRLPRPRPRPARDPRP | 0.27 |
| RRIRKRPPRLPRPRPRPFKNPRP | -0.0646 |
